5 molecules from patent EP4596580A1 (Staidson (Beijing) Biopharmaceuticals Co., Ltd., dated 2025) can be followed below.

Read-outs that look alike come from different tables or passages of the source.

The target of assay [1] is T1, hFc-human LIGHT (human).
T1 construct: also called hFc-huLIGHT
Put plainly: competition ELISA, LTβR-His coated, hFc-huLIGHT added.

Assay [2] has as its target T2, His-human LIGHT (human).
T2 construct: also called His-huLIGHT; free LIGHT
T2 chain: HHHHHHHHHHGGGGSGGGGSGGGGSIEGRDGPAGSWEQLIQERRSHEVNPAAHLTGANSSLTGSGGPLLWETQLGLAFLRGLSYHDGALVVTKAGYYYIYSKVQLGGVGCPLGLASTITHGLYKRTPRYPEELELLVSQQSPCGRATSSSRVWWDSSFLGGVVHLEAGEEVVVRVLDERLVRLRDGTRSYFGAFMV
Put plainly: ELISA, His-huLIGHT coated.

Assay [3] addresses T2, His-human LIGHT. Description: cell-based or functional assay.
Assay [4] concerns the target T3, His-cynomolgus monkey LIGHT (cynomolgus monkey).
T3 construct: also called His-cynoLIGHT
T3 chain: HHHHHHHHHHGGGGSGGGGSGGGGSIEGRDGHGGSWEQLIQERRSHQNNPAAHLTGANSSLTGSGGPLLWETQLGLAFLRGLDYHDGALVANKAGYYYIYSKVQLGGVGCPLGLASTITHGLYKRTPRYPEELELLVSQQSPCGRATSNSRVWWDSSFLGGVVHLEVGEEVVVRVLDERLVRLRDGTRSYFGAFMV
Put plainly: ELISA, His-cynoLIGHT coated.

Assay [5] has as its target LIGHT on the surface of HEK293-LIGHT stable cells (human, UniProt O43557 1-240). Description: cell-based or functional assay.
For assay [6], the target named is T2, His-human LIGHT. Description: ELISA, His-huLIGHT coated.
Assay [7] addresses T2, His-human LIGHT. Put plainly: cell-based or functional assay.
In assay [8] the target is T1, hFc-human LIGHT. Put plainly: competition ELISA, LTβR-His coated, hFc-huLIGHT added. The source holds these as a separate data set.
For assay [9], the target named is T2, His-human LIGHT. Description: SPR, Biacore 8K, antibody on CM5 chip, human LIGHT.

B1: hum_LT-m58-4 (antibody, human IgG4, V domains shown)
VH: QVQLVQSGAEVKKPGASVKVSCKASGYTFIDHIMNWVRKAPGQGLEWMGRIYPVSGETNYNQKFMGRATFTVDRSTSTVYMELSSLRSEDTAVYYCGRGSYYWNAMDYWGQGTLVTVSS
VL: EIVMTQSPATLSVSPGERATLSCKASQSVDFDGESYMNWYQQKPGQPPRLLIYSASNLESGIPARFSGSGSGTEFTLTISSLQSEDFAVYYCQQSIEDPWTFGQGTKLEIK
notes: humanized from LT-m58
B1 registered an IC50 in the assay with hFc-human LIGHT [1] of 0.208 nM. Besides, the EC50 in the assay with His-human LIGHT [2] worked out at 0.00617 nM.

B2: hum_LT-m58-3 (antibody, human IgG4, V domains shown)
VH: QVQLVQSGAEVKKPGASVKVSCKASGYTFIDHIMNWVRKAPGQGLEWMGRIYPVSGETNYNQKFMGRATFTVDRSTSTVYMELSSLRSEDTAVYYCGRGSYYWNAMDYWGQGTLVTVSS
VL: DIVMTQSPDSLAVSLGERATINCKASQSVDFDGDSYMNWYQQKPGQPPKLLIYSASNLESGVPDRFSGSGSGTDFTLTISSLQAEDVAVYYCQQSIEDPWTFGQGTKVEIK
notes: humanized from LT-m58
Turning to B2, in the assay with hFc-human LIGHT [1], the IC50 was determined as 0.169 nM. Moreover, in the assay with His-human LIGHT [2], the EC50 amounted to 0.0112 nM.

B3: hum_LT-m37-3 (antibody, human IgG4, V domains shown)
VH: QVQLVQSGAEVKKPGASVKVSCKASGYSFTGYFINWVRQAPGQGLEWIGRIYPYNVNTFYNQNFKGRATMTADKSTSTAYMELSSLRSEDTAVYYCGRGTHYYGSSGAMDYWGQGTLVTVSS
VL: EIVLTQSPATLSVSPGERATLSCKASQNVGTAVAWYQQKPGQSPRLLIYSASNRYTGIPARFSGSGSGTEFTLTISSLQSEDFAVYFCQQYSSYPYTFGGGTKVEIK
notes: humanized from LT-m37
As to B3, in the assay with His-human LIGHT [3], the “IC50, HVEM NF-κB luciferase reporter, free LIGHT” value was 0.0747 µg/mL. The EC50 in assay [4] came out at 0.0554 nM; with His-human LIGHT [6], 0.0875 µg/mL. Further, the “IC50, LTβR NF-κB luciferase reporter, HEK293-LIGHT cells” value (shortened to “IC50 … HEK293-LIGHT cells”) in [5] is 1.79 µg/mL. For the same molecule, the “IC50, LTβR NF-κB luciferase reporter, free LIGHT” value in the assay with His-human LIGHT [7] was determined as 0.399 µg/mL.

B4: hum_LT-m37-2 (antibody, human IgG4, V domains shown)
VH: QVQLVQSGAEVKKPGASVKVSCKASGYSFTGYFINWVRQAPGQGLEWIGRIYPYNVNTFYNQNFKGRATLTADKSTSTAYMELSSLRSEDTAVYYCGRGTHYYGSSGAMDYWGQGTLVTVSS
VL: EIVLTQSPATLSVSPGERATLSCKASQNVGTAVAWYQQKPGQSPRLLIYSASNRYTGIPARFSGSGSGTEFTLTISSLQSEDFAVYFCQQYSSYPYTFGGGTKVEIK
notes: humanized from LT-m37
Turning to B4, the IC50 in the assay with hFc-human LIGHT [8] was 0.0598 nM. In addition, the “IC50, HVEM NF-κB luciferase reporter, free LIGHT” value with His-human LIGHT [3] was determined as 0.0918 µg/mL. Further, the EC50 in assay [4] was determined as 0.0517 nM; in the assay with His-human LIGHT [6], 0.081 µg/mL. In assay [5], the “IC50 … HEK293-LIGHT cells” value came out at 3.54 µg/mL. Besides, the “IC50, LTβR NF-κB luciferase reporter, free LIGHT” value with His-human LIGHT [7] came out at 0.293 µg/mL.

B5: hum_LT-m37-4 (antibody, human IgG4, V domains shown)
VH: QVQLVQSGAEVKKPGASVKVSCKASGYSFTGYFINWVRQAPGQGLEWIGRIYPYNVNTFYNQNFKGRVTMTADKSTSTAYMELSSLRSEDTAVYYCGRGTHYYGSSGAMDYWGQGTLVTVSS
VL: EIVLTQSPATLSVSPGERATLSCKASQNVGTAVAWYQQKPGQSPRLLIYSASNRYTGIPARFSGSGSGTEFTLTISSLQSEDFAVYFCQQYSSYPYTFGGGTKVEIK
notes: humanized from LT-m37
As to B5, the IC50 with hFc-human LIGHT [8] worked out at 0.0748 nM. Further, in the assay with His-human LIGHT [9], the Kd stood at 0.241 nM, the koff is 7.1e-05 s⁻¹ and the kon was 295000 M⁻¹ s⁻¹. Further, the “IC50, HVEM NF-κB luciferase reporter, free LIGHT” value in the assay with His-human LIGHT [3] was 0.0677 µg/mL. This molecule also yielded an EC50 in [4] of 0.0527 nM. In [5], the “IC50 … HEK293-LIGHT cells” value stood at 2.56 µg/mL. Further, the midpoint of the response in the assay with His-human LIGHT [6], the EC50, lay at 0.0859 µg/mL. For the same molecule, the “IC50, LTβR NF-κB luciferase reporter, free LIGHT” value with His-human LIGHT [7] stood at 0.129 µg/mL.
